Laboratory results reported in US20160130305A1.
pIC50: −log10 of the molar value.

What was measured:
HLA B*0702 (human) = test: competition with radiolabeled probe peptide on purified HLA
HLA DRB1*0101 (human) = test: competition with radiolabeled probe peptide, purified MHC

Substance	pIC50 (HLA B*0702 (human))	pIC50 (HLA DRB1*0101 (human))
NS4B2296-2305 (peptide)	< 6.00	
NS52967-2981 (peptide; other documents disagree on this pair)		7.32
